Residue numbers refer to the chain shown, from its start.

For experiment [1], the target named is T1, AMS2b E2E1-I53-50A trimer (Hepatitis C virus genotype 2b, strain …, stabilised).
T1 construct: also called AMS2b E2E1 trimer; source: HEK293F, co-transfected with furin, purified (Strep-TactinXT, SEC); copies: 3 + 3
As to the kind of experiment: ELISA. The following applies: both partners purified. (In general: ELISA stands for enzyme-linked immunosorbent assay.)

In experiment [2] the target is T2, UKNP5.2.1 E2E1-I53-50A trimer (Hepatitis C virus genotype 5, strain …, UniProt A0A0U3TV66, stabilised).
T2 construct: also called UKNP5.2.1 E2E1 trimer; source: HEK293F, co-transfected with furin, purified (Strep-TactinXT, SEC); copies: 3 + 3
As to the kind of experiment: ELISA. The following applies: both partners purified.

Experiment [3] deals with T3, UKNP4.1.1 E2E1-I53-50A trimer (Hepatitis C virus genotype 4a, strain …, UniProt A0A0U3JDN1, stabilised).
T3 construct: also called UKNP4.1.1 E2E1 trimer; source: HEK293F, co-transfected with furin, purified (Strep-TactinXT, SEC); copies: 3 + 3
As to the kind of experiment: ELISA. The following applies: both partners purified.

Experiment [4] has as its target T4, AMS3a E2E1-I53-50A trimer (Hepatitis C virus genotype 3a, strain …, stabilised).
T4 construct: also called AMS3a E2E1 trimer; source: HEK293F, co-transfected with furin, purified (Strep-TactinXT, SEC); copies: 3 + 3
As to the kind of experiment: ELISA. The following applies: both partners purified.

In the next experiment the target is T5, H77 E2E1-I53-50A trimer (Hepatitis C virus genotype 1a, strain …, UniProt P27958, stabilised).
T5 construct: source: HEK293F, co-transfected with furin, purified (Strep-TactinXT, SEC); copies: 3 + 3
The experiment in a line: ELISA. The following applies: both partners purified.

Experiment [5] concerns the target T6, UKNP6.1.2 E2E1-I53-50A trimer (Hepatitis C virus genotype 6, strain …, UniProt A0A0U3SJ35, stabilised).
T6 construct: also called UKNP6.1.2 E2E1 trimer; source: HEK293F, co-transfected with furin, purified (Strep-TactinXT, SEC); copies: 3 + 3
The experiment in a line: ELISA. The settings on record: both partners purified.

For experiment [6], the target named is T7, AMS2b E2E1-I53-50A trimer (Hepatitis C virus genotype 2b, strain …, stabilised).
T7 construct: also called AMS2b E2E1 trimer; source: HEK293F, co-transfected with furin, purified (Strep-TactinXT, SEC); copies: 3 + 3
T7 chain 1: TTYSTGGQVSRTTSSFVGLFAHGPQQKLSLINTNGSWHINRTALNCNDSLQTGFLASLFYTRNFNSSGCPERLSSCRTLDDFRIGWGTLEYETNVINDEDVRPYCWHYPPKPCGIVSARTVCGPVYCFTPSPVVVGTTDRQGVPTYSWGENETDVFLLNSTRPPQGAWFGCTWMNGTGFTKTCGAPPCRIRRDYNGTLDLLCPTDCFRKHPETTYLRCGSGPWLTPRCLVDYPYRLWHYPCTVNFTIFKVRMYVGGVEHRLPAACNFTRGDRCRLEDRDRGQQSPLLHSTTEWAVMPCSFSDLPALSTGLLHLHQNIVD
T7 chain 2: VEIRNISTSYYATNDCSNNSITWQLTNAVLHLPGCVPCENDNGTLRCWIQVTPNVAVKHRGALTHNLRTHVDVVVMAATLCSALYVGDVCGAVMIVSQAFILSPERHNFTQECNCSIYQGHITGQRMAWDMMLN
As to the kind of experiment: ELISA. The following applies: both partners purified.

Experiment [7] has as its target T8, UKNP5.2.1 E2E1-I53-50A trimer (Hepatitis C virus genotype 5, strain …, UniProt A0A0U3TV66, stabilised).
T8 construct: also called UKNP5.2.1 E2E1 trimer; source: HEK293F, co-transfected with furin, purified (Strep-TactinXT, SEC); copies: 3 + 3
The experiment in a line: ELISA. The following applies: both partners purified. The source holds these as a separate data set.

The target in experiment [8] is T9, UKNP4.1.1 E2E1-I53-50A trimer (Hepatitis C virus genotype 4a, strain …, UniProt A0A0U3JDN1, stabilised).
T9 construct: also called UKNP4.1.1 E2E1 trimer; source: HEK293F, co-transfected with furin, purified (Strep-TactinXT, SEC); copies: 3 + 3
The experiment in a line: ELISA. The following applies: both partners purified. This is another data set of the same source.

In experiment [9] the target is T10, AMS3a E2E1-I53-50A trimer (Hepatitis C virus genotype 3a, strain …, stabilised).
T10 construct: also called AMS3a E2E1 trimer; source: HEK293F, co-transfected with furin, purified (Strep-TactinXT, SEC); copies: 3 + 3
T10 chain 1: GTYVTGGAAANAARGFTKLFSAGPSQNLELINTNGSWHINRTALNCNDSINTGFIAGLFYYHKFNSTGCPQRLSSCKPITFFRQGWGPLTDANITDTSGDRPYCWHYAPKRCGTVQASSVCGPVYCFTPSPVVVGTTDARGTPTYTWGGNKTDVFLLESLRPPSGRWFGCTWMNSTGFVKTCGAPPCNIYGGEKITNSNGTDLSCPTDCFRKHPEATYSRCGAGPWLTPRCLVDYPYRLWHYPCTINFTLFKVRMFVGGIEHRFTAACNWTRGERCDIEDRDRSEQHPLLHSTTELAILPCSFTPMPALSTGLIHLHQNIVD
T10 chain 2: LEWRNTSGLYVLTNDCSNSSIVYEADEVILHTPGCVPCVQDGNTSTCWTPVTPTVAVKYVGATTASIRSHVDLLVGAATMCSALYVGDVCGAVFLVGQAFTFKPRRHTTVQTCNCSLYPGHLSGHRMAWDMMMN
As to the kind of experiment: ELISA. The settings on record: both partners purified.

Experiment [10] has as its target T11, UKNP6.1.2 E2E1-I53-50A trimer (Hepatitis C virus genotype 6, strain …, UniProt A0A0U3SJ35, stabilised).
T11 construct: also called UKNP6.1.2 E2E1 trimer; source: HEK293F, co-transfected with furin, purified (Strep-TactinXT, SEC); copies: 3 + 3
As to the kind of experiment: ELISA. The settings on record: both partners purified. The source holds these as a separate data set.

For experiment [11], the target named is T2, UKNP5.2.1 E2E1-I53-50A trimer. The experiment in a line: cell-based or functional assay.

B1: AR3C (antibody, V domains shown)
VH: VQLLEQSGAEVKKPGSSVKVSCETSGGTFDNYALNWVRQAPGQGLEWIGGVVPLFGTTRNAQKFQGRVTISDDKSTGTGHMELRSLRSEDTAVYYCVRSVTPRYCGGGFCYGEFDYWGQGTLVTVSS
VL: EIELTQSPATLSVSPGERATLSCRASQSVSSNLAWYQQKPGQAPRLLIYGASTRATGIPARFSGSGSGTEFTLTVSRLEPEDSAVYFCQQYYRSPLTFGGGTKVEIK
notes: also called mature AR3C; conventional AR3C; source: HEK293F, transfected, purified (protein A/G)
Regarding B1, the binding result (in experiment [1]; in experiment [2]; in [3]; in experiment [4]; in the experiment with H77 E2E1-I53-50A trimer; in experiment [5]) was “binds” in each case.

B2: AR3D (antibody, V domains shown)
VH: LLEQSGAEVKKPGSSVKVSCKASGDTFRSYVITWARQAPGQGLEWMGAIIPFFGTTNLAQKFQGRVTITADESTKTVYMDLSSLRSDDTAVYYCAKAGDLSVGGVLAGGVPHLRHFDPWGQGTLVTVSS
VL: ELTQSPGTLSLSPGERATLSCRAGQTVASNSLAWYQHKPGQAPRLLIYGASIRASGIPDRFSGSGSGTDFTLTISRLEPEDFAVYYCQQYGLSSTFGQGTRLEIK
notes: also called mature AR3D; source: HEK293F, transfected, purified (protein A/G)
For B2, the binding result (in experiment [6]; with H77 E2E1-I53-50A trimer; in experiment [7]; in experiment [8]; in [9]; in experiment [10]) was “binds” in each case.

B3: HEPC3 (antibody, V domains shown)
VH: QVQLVQSGAEVKKPGSSVKVSCKASGGTLNSYEITWVRQAPGQGLEWMGGITPIFETTYAQKFQGRVTITADESTSTTYMELSSLRPEDTAVYYCARDGVRYCGGGRCYNWFDPWGQGTLVTVSS
VL: DIQMTQSPSSLSASVGDRVTITCRAGQNINNYLNWYQQKPGKAPKVLIYAASNLQSGVPSRFSGSGSGTDFTLTISSLQPEDFATYYCQQSHSTVRTFGQGTKVEIK
notes: also called mature HEPC3; source: HEK293F, transfected, purified (protein A/G)
Take B3: the binding result (in experiment [1]; in [2]; in experiment [3]; in experiment [4]; with H77 E2E1-I53-50A trimer; in experiment [5]) was “binds” throughout.

B4: AT1209 (antibody, V domains shown)
VH: QVLVQSGAEVKKPGSSVRVSCKASGDTFKTHAISWVRQAPGQGLEWVGGTVRQAPGDGLELLGGFVPILAPANDAQKFQGRVTITADGSTGPVYMDLSTLTSEDTAMYYCVTSLSEPIPRSCRGGRCYSGPFDAFGVWGQ
VL: EIMLTQSPVTLSVSPGERATLSCRASQSIGTNLAWYQKPGQAPRLLIHGASTRATGVPVSFSGSGSGTEFTLTISSLQSEDFAVYYCQQYNNWPLTFGGGTKVEIK
notes: also called mature AT1209; source: HEK293F, transfected, purified (protein A/G)
For the molecule B4, the binding result (in experiment [1]; in [2]; in experiment [3]; in [4]; in the experiment with H77 E2E1-I53-50A trimer; in [5]) was “binds” each time.

B5: HEPC74 (antibody, V domains shown)
VH: QVQLVQSGAEVKKPGSSVKVSCTTSGGTYINYAISWVRQAPGQGLEWVGGMSPISNTPKYAQKFQGRVTITADESTSTTYMELSSLRPEDTAVYYCARDLLKYCGGGNCHSLLVDPWGQGTLVTVSS
VL: DIVMTQSPSTLSASVGDRVTISCRASQSISSWLAWYQQKPGRAPKLLIYKASSLETGVPSRFSGSGSGTEFTLTISSLQPDDFATYYCQHYNTYLFTFGPGTKVDLK
notes: also called mature HEPC74; conventional HEPC74; source: HEK293F, transfected, purified (protein A/G)
Take B5: the “neutralisation of UKNP5.2.1 HCVpp, IC50” value in [11] turned out to be 0.03 µg/mL. The binding result (in experiment [1]; in experiment [4]; with H77 E2E1-I53-50A trimer) was “binds” throughout.

B6: HEPC74 S54L (antibody, V domains shown)
VH: B5 VH with S55L
VL: B5 VL
notes: human IgG1; source: HEK293F, transfected, purified (protein A/G)
Turning to B6, the binding result (in [1]; in experiment [2]; in experiment [3]; in experiment [4]; with H77 E2E1-I53-50A trimer; in experiment [5]) was “binds” each time.

Source of the values: publication PMC10328973 (Nature Communications, 2023).
